Where a chain is given by its changes, count along the chain named.
T1: RLC-depleted cardiac beta-myosin (myosin heavy chain) (Sus scrofa, UniProt P79293)
T1 chain: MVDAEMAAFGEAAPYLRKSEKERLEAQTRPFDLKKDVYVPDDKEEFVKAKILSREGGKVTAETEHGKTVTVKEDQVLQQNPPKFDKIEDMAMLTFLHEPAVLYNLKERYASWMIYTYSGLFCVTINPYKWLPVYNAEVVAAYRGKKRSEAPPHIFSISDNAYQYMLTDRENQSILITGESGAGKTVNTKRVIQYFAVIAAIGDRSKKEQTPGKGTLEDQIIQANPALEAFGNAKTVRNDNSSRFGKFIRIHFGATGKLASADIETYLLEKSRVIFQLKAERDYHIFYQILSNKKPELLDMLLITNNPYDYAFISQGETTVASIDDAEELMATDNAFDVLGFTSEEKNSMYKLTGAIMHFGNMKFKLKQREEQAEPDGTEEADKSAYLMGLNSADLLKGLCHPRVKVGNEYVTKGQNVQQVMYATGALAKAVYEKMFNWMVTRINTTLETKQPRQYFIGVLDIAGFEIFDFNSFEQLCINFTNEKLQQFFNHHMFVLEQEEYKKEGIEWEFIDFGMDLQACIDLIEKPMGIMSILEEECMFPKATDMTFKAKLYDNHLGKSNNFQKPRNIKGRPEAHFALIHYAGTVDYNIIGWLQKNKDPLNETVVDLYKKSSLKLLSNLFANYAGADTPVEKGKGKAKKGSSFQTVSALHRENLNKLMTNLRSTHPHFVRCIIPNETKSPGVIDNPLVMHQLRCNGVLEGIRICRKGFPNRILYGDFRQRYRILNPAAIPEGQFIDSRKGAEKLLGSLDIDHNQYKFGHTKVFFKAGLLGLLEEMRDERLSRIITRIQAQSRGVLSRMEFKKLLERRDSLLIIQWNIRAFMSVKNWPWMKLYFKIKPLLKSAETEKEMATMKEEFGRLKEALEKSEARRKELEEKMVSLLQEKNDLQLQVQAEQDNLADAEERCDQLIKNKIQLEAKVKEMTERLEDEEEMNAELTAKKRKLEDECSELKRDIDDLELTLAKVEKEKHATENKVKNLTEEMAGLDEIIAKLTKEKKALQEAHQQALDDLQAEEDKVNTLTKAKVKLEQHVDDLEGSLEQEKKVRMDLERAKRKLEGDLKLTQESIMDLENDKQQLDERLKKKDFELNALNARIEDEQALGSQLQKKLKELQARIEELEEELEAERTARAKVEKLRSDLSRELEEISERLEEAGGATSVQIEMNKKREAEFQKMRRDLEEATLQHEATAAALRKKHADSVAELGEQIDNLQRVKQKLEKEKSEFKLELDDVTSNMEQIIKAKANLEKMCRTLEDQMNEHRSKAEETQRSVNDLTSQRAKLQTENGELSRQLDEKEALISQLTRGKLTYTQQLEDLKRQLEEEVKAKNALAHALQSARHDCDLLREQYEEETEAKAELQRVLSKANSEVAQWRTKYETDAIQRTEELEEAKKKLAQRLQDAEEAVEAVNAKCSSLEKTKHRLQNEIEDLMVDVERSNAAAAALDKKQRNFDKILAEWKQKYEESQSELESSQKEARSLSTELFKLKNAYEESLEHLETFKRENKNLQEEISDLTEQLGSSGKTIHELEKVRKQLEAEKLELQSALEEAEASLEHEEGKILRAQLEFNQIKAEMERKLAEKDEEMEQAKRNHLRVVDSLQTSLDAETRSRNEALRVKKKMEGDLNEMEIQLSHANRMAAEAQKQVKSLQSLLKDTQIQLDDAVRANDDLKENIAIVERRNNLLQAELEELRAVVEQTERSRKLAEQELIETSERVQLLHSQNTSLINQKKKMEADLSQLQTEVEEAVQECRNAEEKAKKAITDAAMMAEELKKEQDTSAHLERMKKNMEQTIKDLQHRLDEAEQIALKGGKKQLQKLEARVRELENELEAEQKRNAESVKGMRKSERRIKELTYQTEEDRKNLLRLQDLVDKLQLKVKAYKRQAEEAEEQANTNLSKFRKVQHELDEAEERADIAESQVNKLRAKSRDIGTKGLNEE

B1: Myosin regulatory light chain 2, ventricular (protein)
chain: APKKAKKRAGGANSNVFSMFEQTQIQEFKEAFTIMDQNRDGFIDKNDLRDTFAALGRVNVKNEEIDEMIKEAPGPINFTVFLTMFGEKLKGADPEETILNAFKVFDPEGKGVLKADYVREMLTTQAERFSKEEVDQMFAAFPPDVTGNLDYKNLVHIITHGEEKD
B2: Myosin regulatory light chain 2, ventricular (protein)
chain: B1 chain with D93A

Target: T1, RLC-depleted cardiac beta-myosin …
Experiment: SDS-PAGE titration/co-precipitation binding isotherm

| Binder | Kd |
| --- | --- |
| B1 | 3.2 µM |
| B2 | 4.9 µM |

Source: publication PMC4472530 (2016)
